Assays:
[1] = molecular target: HLA-A*01:01; assay: IEDB peptide-MHC binding, purified MHC/direct/fluorescence; filed as Kd, often an IC50 or EC50 that approximates it; ≥ and ≤ were set here for values at or beyond the usual limits of such assays
[2] = molecular target: HLA-A*02:01; assay: as above
[3] = molecular target: HLA-A*03:01; assay: as above; details: source organism: Influenza A virus (A/chicken/Hubei/wk/1997(H5N1))
[4] = molecular target: HLA-A*31:01; assay: as above
[5] = molecular target: HLA-A*68:02; assay: as above
[6] = molecular target: HLA-A*69:01; assay: as above
[7] = molecular target: HLA-B*07:02; assay: as above
[8] = molecular target: HLA-B*08:01; assay: as above
[9] = molecular target: HLA-B*15:01; assay: as above
[10] = molecular target: HLA-B*48:01; assay: as above
[11] = molecular target: HLA-B*57:01; assay: as above
[12] = molecular target: HLA-B*58:01; assay: as above
[13] = molecular target: HLA-B*73:01; assay: as above; details: source organism: Influenza A virus (A/chicken/Hubei/wk/1997(H5N1))
[14] = molecular target: HLA-A*11:01; assay: IEDB peptide-MHC binding, purified MHC/competitive/fluorescence; filed as Kd, often an IC50 or EC50 that approximates it; ≥ and ≤ were set here for values at or beyond the usual limits of such assays
[15] = molecular target: HLA-A*30:01; assay: as above
[16] = molecular target: HLA-B*15:17; assay: as above
[17] = molecular target: HLA-B*18:01; assay: as above
[18] = molecular target: HLA-A*24:03; assay: IEDB peptide-MHC binding, purified MHC/direct/fluorescence; filed as Kd, often an IC50 or EC50 that approximates it; ≥ and ≤ were set here for values at or beyond the usual limits of such assays; details: source organism: Camelpox virus M-96
[19] = molecular target: HLA-B*15:17; assay: as above
[20] = molecular target: HLA-C*07:02; assay: as above
[21] = molecular target: HLA-A*02:06; assay: IEDB peptide-MHC binding, purified MHC/competitive/fluorescence; filed as Kd, often an IC50 or EC50 that approximates it; ≥ and ≤ were set here for values at or beyond the usual limits of such assays; details: source organism: Vaccinia virus WR
[22] = molecular target: HLA-A*26:02; assay: as above
[23] = molecular target: HLA-A*31:01; assay: as above
[24] = molecular target: HLA-A*68:02; assay: as above; details: source organism: Vaccinia virus WR
[25] = molecular target: HLA-B*39:01; assay: as above; details: source organism: Vaccinia virus WR
[26] = molecular target: HLA-C*06:02; assay: IEDB peptide-MHC binding, purified MHC/direct/fluorescence; filed as Kd, often an IC50 or EC50 that approximates it; ≥ and ≤ were set here for values at or beyond the usual limits of such assays; details: source organism: Listeria monocytogenes serotype 1/2a str. F6854
[27] = molecular target: HLA-C*15:02; assay: as above; details: source organism: Listeria monocytogenes serotype 1/2a str. F6854
[28] = molecular target: HLA-B*46:01; assay: IEDB peptide-MHC binding, purified MHC/competitive/fluorescence; filed as Kd, often an IC50 or EC50 that approximates it; ≥ and ≤ were set here for values at or beyond the usual limits of such assays; details: source organism: Listeria monocytogenes serotype 1/2a str. F6854
[29] = molecular target: HLA-A*11:01; assay: IEDB peptide-MHC binding, purified MHC/direct/fluorescence; filed as Kd, often an IC50 or EC50 that approximates it; ≥ and ≤ were set here for values at or beyond the usual limits of such assays
[30] = molecular target: HLA-B*08:03; assay: as above
[31] = molecular target: HLA-B*15:09; assay: as above; details: source organism: Variola virus
[32] = molecular target: HLA-B*39:01; assay: as above
[33] = molecular target: HLA-C*14:02; assay: as above; details: source organism: Vaccinia virus Copenhagen
[34] = molecular target: HLA-A*02:03; assay: IEDB peptide-MHC binding, purified MHC/competitive/fluorescence; filed as Kd, often an IC50 or EC50 that approximates it; ≥ and ≤ were set here for values at or beyond the usual limits of such assays; details: source organism: Vaccinia virus Copenhagen
[35] = molecular target: HLA-B*15:01; assay: as above; details: source organism: Vaccinia virus Copenhagen
[36] = molecular target: HLA-A*26:02; assay: IEDB peptide-MHC binding, purified MHC/direct/fluorescence; filed as Kd, often an IC50 or EC50 that approximates it; ≥ and ≤ were set here for values at or beyond the usual limits of such assays; details: source organism: Giardia lamblia ATCC 50803
[37] = molecular target: HLA-A*26:03; assay: as above; details: source organism: Giardia lamblia ATCC 50803
[38] = molecular target: HLA-B*08:02; assay: as above; details: source organism: Giardia lamblia ATCC 50803
[39] = molecular target: HLA-B*18:01; assay: as above; details: source organism: Giardia lamblia ATCC 50803
[40] = molecular target: HLA-B*27:05; assay: as above; details: source organism: Giardia lamblia ATCC 50803
[41] = molecular target: HLA-B*40:01; assay: as above; details: source organism: Giardia lamblia ATCC 50803
[42] = molecular target: HLA-A*68:23; assay: IEDB peptide-MHC binding, purified MHC/competitive/fluorescence; filed as Kd, often an IC50 or EC50 that approximates it; ≥ and ≤ were set here for values at or beyond the usual limits of such assays; details: source organism: Homo sapiens
[43] = molecular target: HLA-B*15:42; assay: as above; details: source organism: Homo sapiens
[44] = molecular target: HLA-B*45:06; assay: as above; details: source organism: Homo sapiens
[45] = molecular target: HLA-B*83:01; assay: as above; details: source organism: Homo sapiens
[46] = source organism: Influenza A virus (A/chicken/Hubei/wk/1997(H5N1))
[47] = source organism: Influenza A virus H3N2
[48] = source organism: Camelpox virus M-96
[49] = source organism: Vaccinia virus WR
[50] = source organism: Vaccinia virus Copenhagen
[51] = source organism: Giardia lamblia ATCC 50803

MKWMMAMKY was tested, and the Kd [1, 46] was ≥ 20 µM, the Kd [2, 46] was ≥ 20 µM and the Kd [3] was ≥ 20 µM. For the same sequence, the Kd [4, 46] was ≥ 20 µM, the Kd [5, 46] was ≥ 20 µM and the Kd [6, 46] was ≥ 20 µM. The Kd [7, 46] was ≥ 20 µM, the Kd ([8]; source organism: Influenza A virus(A/swine/Shandong/fNY/2003(H9N2))) was ≥ 20 µM and the Kd [9, 46] was ≥ 20 µM. For the same sequence, the Kd [10, 46] was ≥ 20 µM, the Kd [11, 46] was ≥ 20 µM and the Kd [12, 46] was ≥ 20 µM. The Kd [13] was ≥ 20 µM, the Kd [14, 47] was ≥ 20 µM and the Kd [15, 47] was 1.08 µM. The Kd [16, 47] was 0.912 µM and the Kd [17, 47] was 0.984 µM.
With NYFNRMFHF the Kd [1, 48] was ≥ 20 µM, the Kd [2, 48] was ≥ 20 µM and the Kd [18] was 0.0043 µM. For the same sequence, the Kd [6, 48] was ≥ 20 µM, the Kd [7, 48] was ≥ 20 µM and the Kd [9, 48] was ≥ 20 µM. The Kd [19, 48] was ≥ 20 µM, the Kd [11, 48] was ≥ 20 µM and the Kd [12, 48] was ≥ 20 µM. For the same sequence, the Kd [20, 49] was 0.003 µM, the Kd [21] was 3.36 µM and the Kd [14, 49] was ≥ 20 µM. For the same sequence, the Kd [22, 49] was ≥ 20 µM, the Kd [15, 49] was 3.26 µM and the Kd [23, 49] was 2.3 µM. For the same sequence, the Kd [24] was ≥ 20 µM, the Kd [17, 49] was 0.89 µM and the Kd [25] was 3 µM.
KMIGNLLSF was tested, and the Kd [26] was ≥ 20 µM, the Kd ([20]; source organism: Listeria monocytogenes serotype 1/2a str. F6854) was 0.666 µM and the Kd [27] was 2.56 µM. For the same sequence, the Kd [28] was 1.11 µM.
For KYFDDVTAF, the Kd [1, 48] was ≥ 20 µM, the Kd [2, 48] was ≥ 20 µM and the Kd [29, 48] was ≥ 20 µM. The Kd [18] was 0.0055 µM, the Kd [5, 48] was ≥ 20 µM and the Kd [6, 48] was ≥ 20 µM. For the same sequence, the Kd [7, 48] was ≥ 20 µM, the Kd ([8]; source organism: Variola virus) was ≥ 20 µM and the Kd ([30]; source organism: Variola virus) was ≥ 20 µM. For the same sequence, the Kd [31] was ≥ 20 µM, the Kd ([32]; source organism: Variola virus) was ≥ 20 µM and the Kd [11, 48] was ≥ 20 µM. The Kd [12, 48] was ≥ 20 µM, the Kd [33] was ≤ 0.001 µM and the Kd [34] was 3.99 µM. The Kd [22, 50] was ≥ 20 µM, the Kd [23, 50] was 2.95 µM and the Kd [35] was 2.07 µM. It also gave a Kd [16, 50] of 4.33 µM and a Kd [17, 50] of 0.0874 µM.
In the case of RENQVAVVR, the Kd [1, 51] is reported as ≥ 20 µM, the Kd [2, 51] is reported as ≥ 20 µM and the Kd [29, 51] is reported as ≥ 20 µM. For the same sequence, the Kd [36] was ≥ 20 µM, the Kd [37] was ≥ 20 µM and the Kd [4, 51] was ≥ 20 µM. The Kd [5, 51] was ≥ 20 µM, the Kd [6, 51] was ≥ 20 µM and the Kd [7, 51] was ≥ 20 µM. For the same sequence, the Kd [8, 51] was ≥ 20 µM, the Kd [38] was ≥ 20 µM and the Kd [30, 51] was ≥ 20 µM. For the same sequence, the Kd [19, 51] was ≥ 20 µM, the Kd [39] was ≥ 20 µM and the Kd [40] was ≥ 20 µM. The Kd [32, 51] was ≥ 20 µM, the Kd [41] was ≥ 20 µM and the Kd [10, 51] was ≥ 20 µM. For the same sequence, the Kd [11, 51] was ≥ 20 µM and the Kd [12, 51] was ≥ 20 µM.
For KGPPAALTL, the Kd [42] was 0.946 µM, the Kd [43] was ≥ 5 µM and the Kd [44] was ≥ 5 µM. It also gave a Kd [45] of 5.27 µM.

— the Immune Epitope Database (IEDB)
